± gives the half width of the 95% confidence interval.
Experiment: folding stability dG unfold (combined trypsin and chymotrypsin); higher = more stable
Procedure, shortened: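 Designed mini-proteins (under 80 residues, no cysteine) in a PA-tagged cDNA display construct were digested with trypsin and chymotrypsin. Each protease was used at 11 concentrations (threefold dilutions) plus a no-protease condition, followed by sequencing. K50 was inferred by Bayesian fitting of sequencing counts, and unfolding free energy was derived against a sequence-predicted unfolded-state K50 and a shared folded-state K50, per protease or combined. Only designs with AlphaFold2 dimer inter-PAE above 15 were kept.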

Row | Sequence | folding stability dG unfold [kcal/mol]
1 | SAGGSAPPPGSTQVIVVEKRDAPPEEAAQEIADEIKEKYPNTSVEVQEEEVPPGEPVVRVTVYIPPSAGGSA [r15_916_JUSTAS] | 0.559 ± 0.48
2 | SAGGKKPKIEVKIEFDEETGKLRIEIRTEDGKLIAEKEIEIDGVLFKVKVIVKDGKLVIEIEAFPKKSAGGS [r16_631_TrROS_Hall] | 3.65 ± 0.25
3 | SAGAKEITAEELAEIVREFAAALPPDVKEPVTVEITVPLEDGRVLVFKVTVERSPDGVKATVEVSPGASAGG [r19_220_TrMRF] | 3.21 ± 0.18
4 | SAGGPEELELTLSIDYPDLTPEQAAEEARRLLEGLGFEVKEIPVTVEPGPGKVTVRARVTVLPPEERSAGGS [r16_287_TrMRF] | 1.06 ± 0.17
5 | SAGGSAGGSAGSPDRPRRVEPVPVVTYKDPDLGKEFTSPEEIEKTKEELEKKGLSVEVSASAGGSAGGSAGG [r17_289_JUSTAS] | 0.289 ± 0.15
6 | SAGGMIVLEFPDGKIVFVEPVSEFTTPDGKKVRLVKVIVTDPLTGKSTIIEREVLPGGGVKEKVTPESAGGS [r16_651_JUSTAS] | 1.49 ± 0.13
7 | SAGGSAIIIPIKSAEEILDQLENNPPGRPIHVWAPDGYWIKIEIDPGKGPKIKITEIYPMPPEEAKSAGGSA [r15_577_TrROS] | 0.896 ± 0.09
8 | SAGGSAGGSMIKRTVTVTVYFPGKPLSIPVEYTSEEELPVVAEEAVKPIIEKVPEYKIPEPKLSAGGSAGGS [r12_230_JUSTAS] | 0.561 ± 0.33
9 | SAGGSAGGSAGGRLVVFEVKKDELNITGPGEARVVSVEELPGDRVRVVVEVPEGAVPGLASAGGSAGGSAGG [r17_48_TrMRF] | 0.935 ± 0.12
10 | SSPALDEKYTAKVDAKVTSPEGKPLATFTIDVLTEEEAKKKIEEFVKELAEKLGRPDLPVTISNITIERVSA [r9_376_JUSTAS] | 0.679 ± 0.25
11 | SAKEELYIIEIKVYVDGKEVKTITKVITVPEEKLEEKLKELLKKLAEELGLEIKKVEVKIKKLSLEELKSAG [r14_104_TrROS_Hall] | 2.83 ± 0.34
12 | SAGGSAGGLPEGDIYRIRVTLPNGNTFTITFPVKSVEQAKDFAKSFLESLGLPDVKVDIEPVPVSAGGSAGG [r6_844_TrROS] | 4 ± 0.074
13 | SAGGSAGGSAGSMSVTLSTTVEVTVEPLPDYTIVTVTTTTTFPDGSTTTTVTTTPVPPDLGSAGGSAGGSAG [r3_330_JUSTAS] | 1.68 ± 0.22
14 | SAGMTQTLEVSGPSVKVTLTVAPDGSVTITTTDPNGNTTTTSLYVPPGVPVTIPLPFGGTTITATVTPASAG [r5_237_JUSTAS] | 2.36 ± 0.09
15 | SAGGSAGGSGDKDEVDPNKNISPIPPVKATIFPPDGTPRTVTFTSEEELKAYAEARGWTIEVPSAGGSAGGS [r12_244_JUSTAS] | 0.318 ± 0.23
16 | SAGGSAGGDYERDPNNGKMKMKPKVEPPPPPKIIQIQIPFPEEADDFMNELQDNGYPIYLSPGGSAGGSAGG [r6_872_TrROS] | 0.745 ± 0.3

Row | Sequence | folding stability dG unfold [kcal/mol]
17 | SAGGSAGGSAGDVEVRFEVKFTPDGTLIIKAEIRLPDIPDVTIRVEAVILPNGEILVKVSSAGGSAGGSAGG [r11_483_TrMRF] | 3.68 ± 0.16
18 | SAGGSAKWELSIWIPAPGMTPDKARELARDIAREFAQPGWKVKDIEVEPVNPDENVYRGTVTIEPPSAGGSA [r15_96_TrROS] | 1.49 ± 0.13
19 | SMVVVKVTASSPEEAEALAKEAEEKLKEEIEKKIKELKKKGINPKELNLNIKIEIETLSYDPANPGKNTPSA [r9_961_JUSTAS] | 0.827 ± 0.13
20 | SAGGSAGGSPRVLEIRRYPLPDGGYLLEVRFEKETLFIPVPENVPPHSLEEIEIPLLLGEKPESAGGSAGGS [r12_673_TrMRF] | 1.6 ± 0.044
21 | SAGGSMRFKIEDINIGIIPHPPGWLLIPITVKVKFEEPDPDNGEPKTVEHEFPIMIMMPKDDLDDLSAGGSA [r2_184_TrROS] | 2.44 ± 0.14
22 | SAGGSAGGSAGGSMLVELDENGKTLTIYDEETQELIEVEVEPAPPVEETVTEVSEEELKSAGGSAGGSAGGS [r4_56_TrROS_Hall] | 0.375 ± 0.26
23 | SAMKITIEVIKLPDGYYVVRITVYDKNGEKVEERELVFSSLEDLLAALKELFPDQKVTVEIRKVTKEELSAG [r14_964_TrROS_Hall] | 3.77 ± 0.18
24 | SAGGSAGGSADKIPVKIKVKLKDGDKEYEVTVTVTLDVNDPNLDAFAKELASSGKIEEVEASAGGSAGGSAG [r3_30_TrMRF] | 0.973 ± 0.19
25 | SAGGSAGGSAGKIEIKVVKKTPNYVYYEIRFEETKKTIIVKAKSKEDAEEAAKKLLKELKSAGGSAGGSAGG [r11_848_TrROS_Hall] | 2.62 ± 0.17
26 | SAYIQIERDPDGYIKIEVWFDSPDEGKEFVKEFVKELADQGLDIKIKVTKIEPYPGDPNMYRVSYTIKVSAG [r14_119_TrROS] | 3.52 ± 0.083
27 | SAGGSAGGSAGNLKVVDISIWRTDDMRYIMFKLEGDGLTIMIWVPPKEPGKIQIMIFPLDSAGGSAGGSAGG [r11_1046_TrROS] | 4.34 ± 0.16
28 | SAGGSAGGMTFVDLGEDKPVVIEVPPRPETGLYPVVIHPPEKPVFVEVESPEEAIEAAEKLVEGSAGGSAGG [r6_715_TrMRF] | 1.12 ± 0.045
29 | SAGGSAMPEDTPFVVTKTTEYRLPDGSRVTFEPVPETGKTLVTFTPPDGSSERVWLTPEEAEKLLASAGGSA [r15_2_JUSTAS] | 1.22 ± 0.11
30 | SAGGKPLEPKIEVEVIPLPSGERVITLRVEVPPNDPLKIKFPGLKKEVEFPGDDEVEFRVVVPPDSFSAGGS [r16_56_TrMRF] | 0.69 ± 0.14
31 | SAGGSVTTETDEYFYPDNLFTVAKTTLYVGSGPVEATAVSYPTFTLVNVHYPDGSVDTFLFTLTDDSSAGGS [r16_108_TrMRF] | 3.08 ± 0.13
32 | SAGGSAGGKKNNKPKPILVKIEIINKNGKKKVFTKEFKSLEEAKKFIEKALPKGYSAKIEIIPGSAGGSAGG [r6_289_TrMRF] | 3.18 ± 0.29
